# From patent US20190062443A1 (GALAXY BIOTECH, published 2019)
# B1: B-4H6/3H3-hFc** (bispecific antibody, human IgG1, kappa)
# heavy: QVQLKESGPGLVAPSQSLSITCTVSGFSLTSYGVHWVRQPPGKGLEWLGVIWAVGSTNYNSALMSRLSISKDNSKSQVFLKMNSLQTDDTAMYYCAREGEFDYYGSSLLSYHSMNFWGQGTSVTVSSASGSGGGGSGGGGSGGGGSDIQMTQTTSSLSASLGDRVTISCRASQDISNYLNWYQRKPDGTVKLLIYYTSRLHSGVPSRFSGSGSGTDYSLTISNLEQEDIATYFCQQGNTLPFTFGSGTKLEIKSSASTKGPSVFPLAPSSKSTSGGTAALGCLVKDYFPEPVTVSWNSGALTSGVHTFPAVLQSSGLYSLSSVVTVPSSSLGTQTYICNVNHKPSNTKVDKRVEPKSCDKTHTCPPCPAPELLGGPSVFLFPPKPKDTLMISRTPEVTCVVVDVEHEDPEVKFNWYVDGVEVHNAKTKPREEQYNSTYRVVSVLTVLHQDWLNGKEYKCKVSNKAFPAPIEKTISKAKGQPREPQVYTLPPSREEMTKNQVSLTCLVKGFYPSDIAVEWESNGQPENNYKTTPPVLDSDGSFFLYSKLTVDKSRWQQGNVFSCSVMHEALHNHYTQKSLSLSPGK
# light: EVQLQQSGPELVKPGASVKMSCKASGYTFTSYVMHWVKQKPGQGLEWIGYIIPYNDGTKYNEKFKGKATLTSDKSSSTAYMELSRLTSEDSAVYYCARGGINYDYLYYFDYWGQGTTLTVSSASGSGGGGSGGGGSGGGGSDVVMTQIPLSLPVSLGDQASISCRSSQSLVHSNGNTYLHWYLQKPGQSPKLLIYKVSNRFSGVPDRFSGSGSGTDFTLKISRVEAEDLGVYFCSQSTHVPHTFGGGTKLEIKRTVAAPSVFIFPPSDEQLKSGTASVVCLLNNFYPREAKVQWKVDNALQSGNSQESVTEQDSKDSTYSLSSTLTLSKADYEKHKVYACEVTHQGLSSPVTKSFNRGEC
# notes: Bs(scFv)4-IgG format; also called bispecific B-4H6/3H3-hFc** mAb
# Molecular target: DR5-KF fusion protein (human, UniProt O14763 54-183; P01834 1-107, limits assumed)
# Assay: sandwich ELISA for simultaneous binding: anti-DR4 mAb coat, DR4-hFc 0.5 µg/ml, test mAb, DR5-KF 0.5 µg/ml, HRP-anti-Flag M2
# Sequence of DR5-KF fusion protein (O14763 other isoform, or with tags, fused parts or gaps limits assumed): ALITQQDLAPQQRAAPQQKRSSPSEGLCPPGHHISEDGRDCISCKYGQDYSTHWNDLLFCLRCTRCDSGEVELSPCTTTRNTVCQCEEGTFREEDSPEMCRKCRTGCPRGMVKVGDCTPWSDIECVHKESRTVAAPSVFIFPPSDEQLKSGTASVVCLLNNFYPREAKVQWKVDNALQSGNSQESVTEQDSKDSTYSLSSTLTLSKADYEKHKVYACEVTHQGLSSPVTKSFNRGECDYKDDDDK
binder,measurement,value
B1,binding result,binds
